The record followed here is article doi:10.1101/636423.

The stoichiometry N is a count of units in the complex or per binding partner. Broadly, the Ki is a dissociation constant, usually derived from enzyme kinetics or from competition with a known ligand.

For assay [1], the target named is whole intracellular region of rat PTPRZ (rat PTPRZ-ICR) (rat) (UniProt Q62656). Kind of assay: native MS.
The target is the same in assay [2]. Kind of assay: inhibition of PTPase catalytic activity.

whole intracellular region of rat PTPRZ (rat PTPRZ-ICR) (rat), sequence (Q62656 1699-2316): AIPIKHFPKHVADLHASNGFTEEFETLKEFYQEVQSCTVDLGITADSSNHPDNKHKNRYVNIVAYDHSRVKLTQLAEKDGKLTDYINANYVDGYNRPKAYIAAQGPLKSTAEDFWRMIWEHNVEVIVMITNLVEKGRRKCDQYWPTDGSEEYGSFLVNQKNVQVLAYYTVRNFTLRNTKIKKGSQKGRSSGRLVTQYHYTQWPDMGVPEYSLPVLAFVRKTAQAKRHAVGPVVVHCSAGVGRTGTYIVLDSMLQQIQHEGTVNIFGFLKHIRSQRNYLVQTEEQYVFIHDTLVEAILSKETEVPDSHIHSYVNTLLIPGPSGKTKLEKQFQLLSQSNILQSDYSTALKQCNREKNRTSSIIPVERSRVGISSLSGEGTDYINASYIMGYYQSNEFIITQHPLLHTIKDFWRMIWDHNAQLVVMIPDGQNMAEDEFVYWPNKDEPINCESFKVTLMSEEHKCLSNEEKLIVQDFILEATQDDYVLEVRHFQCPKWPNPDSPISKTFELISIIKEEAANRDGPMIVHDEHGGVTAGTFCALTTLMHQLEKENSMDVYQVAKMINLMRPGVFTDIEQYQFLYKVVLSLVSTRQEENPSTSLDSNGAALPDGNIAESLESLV
F2Pmp-GIT1_(550–556), non-hydrolyzable pTyr mimetic (F2Pmp)-containing substrate-mimetic inhibitor peptide, sequence (Q9Z272 whole entry, looked up, tested part not stated): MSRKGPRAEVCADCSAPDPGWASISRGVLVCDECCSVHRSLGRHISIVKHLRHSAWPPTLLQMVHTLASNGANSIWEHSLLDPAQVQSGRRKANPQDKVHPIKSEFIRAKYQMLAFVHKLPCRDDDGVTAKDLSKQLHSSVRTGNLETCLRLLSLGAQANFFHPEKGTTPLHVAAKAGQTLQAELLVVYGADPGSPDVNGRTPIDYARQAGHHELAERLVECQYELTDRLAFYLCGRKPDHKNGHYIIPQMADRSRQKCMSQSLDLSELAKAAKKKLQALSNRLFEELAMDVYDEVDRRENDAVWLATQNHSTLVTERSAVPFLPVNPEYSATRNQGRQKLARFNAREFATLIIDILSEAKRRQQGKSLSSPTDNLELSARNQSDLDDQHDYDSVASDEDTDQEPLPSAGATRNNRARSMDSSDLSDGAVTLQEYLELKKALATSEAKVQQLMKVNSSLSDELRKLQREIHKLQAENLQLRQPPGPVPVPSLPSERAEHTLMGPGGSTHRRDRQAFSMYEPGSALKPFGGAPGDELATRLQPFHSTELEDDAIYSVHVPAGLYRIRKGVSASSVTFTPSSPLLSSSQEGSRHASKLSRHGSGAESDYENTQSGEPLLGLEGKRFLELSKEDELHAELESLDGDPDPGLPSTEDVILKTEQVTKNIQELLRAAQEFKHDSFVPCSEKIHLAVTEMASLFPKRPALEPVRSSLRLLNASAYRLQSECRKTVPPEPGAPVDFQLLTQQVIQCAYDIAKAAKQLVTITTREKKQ

Regarding “F2Pmp-GIT1_(550–556), non-hydrolyzable pTyr mimetic (F2Pmp)-containing substrate-mimetic inhibitor peptide (from UniProt Q9Z272 550-556)”, in assay [1], the stoichiometry N was 1. The same substance registered a Ki in assay [2] of 3.1 µM.
